# Earlier results in publication PMC3514595.
# Target: IL-15Rα (UniProt Q13261)
# UniProt Q13261, sequence (Q13261 31-205): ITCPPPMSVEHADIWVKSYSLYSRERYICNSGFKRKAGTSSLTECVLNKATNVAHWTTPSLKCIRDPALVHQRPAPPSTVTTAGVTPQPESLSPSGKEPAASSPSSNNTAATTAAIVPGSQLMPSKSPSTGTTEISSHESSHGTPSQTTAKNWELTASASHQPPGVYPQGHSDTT
substance,measurement,value
IL-15 (from UniProt P40933),Kd,0.038 nM
